B1: Human Claudin-7 (Cldn7), wild type, His-tagged [human] / itself (parent)
chain: MANSGLQLLGFSMALLGWVGLVACTAIPQWQMSSYAGDNIITAQAMYKGLWMDCVTQSTGMMSCKMYDSVLALSAALQATRALMVVSLVLGFLAMFVATMGMKCTRCGGDDKVKKARIAMGGGIIFIVAGLAALVACSWYGHQIVTDFYNPLIPTNIKYEFGPAIFIGWAGSALVILGGALLSCSCPGNESKAGYRVPRSYPKSNSSKEYV

In this experiment the parent is B1. Briefly: solubilization/centrifugation assay with SDS-PAGE densitometry. Conditions: p-buffer, n = 9, read off a plot.

From article PMC9271825 come the findings set out here.

Turning to MANSGLQLLGFSMALLGWVGLVACTAIPQWQMSSYAGDNIITAQAMYKGLWMDCVTQSTGMMSCKMYDSVLALSAALQATRALMVVSLVLGFLAMFVATMGMKCTRCGGDDKVKKARIAMGGGIIFIVAGLAALVACSWYGHQIVTDFYNPLIPTNIKYEAGPAIFIGWAGSALVILGGALLSCSCPGNESKAGYRVPRSYPKSNSSKEYV [chain 1 F161A], the screen value (0 mM NaCl) stood at 0.39 a.u and the screen value (300 mM NaCl) worked out at 0.85 a.u.
For MANSGLQLLGFSMALLGWVGLVACTAIPQWQMSSYAGDNIITAQAMYKGLWMDCVTQSTGMMSCKMYDSVLALSAALQATAALMVVSLVLGFLAMFVATMGMKCTRCGGDDKVKKARIAMGGGIIFIVAGLAALVACSWYGHQIVTDFYNPLIPTNIKYEFGPAIFIGWAGSALVILGGALLSCSCPGNESKAGYRVPRSYPKSNSSKEYV [chain 1 R81A], the screen value runs as follows: (0 mM NaCl) 0.7 a.u; (300 mM NaCl) 0.91 a.u.
In the same order, the values of MANSGLQLLGFSMALLGWVGLVACTAIPQWQMSSYAGDNIITAQAMYKGLWMDCVTQSTGMMSCKMYDSVLALSAALQATRALMVVSLVLGFLAMFVATMGMKCTRCGGDDKVKKARIAMGGGIIFIVAGLAALVACSWYGHQIVTDFANPLIPTNIKYEFGPAIFIGWAGSALVILGGALLSCSCPGNESKAGYRVPRSYPKSNSSKEYV [chain 1 Y149A] are 0.67 a.u and 0.96 a.u.
The corresponding values for MANSGLQLLGFSMALLGWVGLVACTAIPQWQMSSYAGDNIITAQAMYKGLWMDCVTQSTGMMSCKMYDSALALSAALQATRALMVVSLVLGFLAMFVATMGMKCTRCGGDDKVKKARIAMGGGIIFIVAGLAALVACSWYGHQIVTDFYNPLIPTNIKYEFGPAIFIGWAGSALVILGGALLSCSCPGNESKAGYRVPRSYPKSNSSKEYV [chain 1 V70A] are 0.39 a.u and 0.8 a.u.
MANSGLQLLGFSMALLGWVGLVACTAIPQWQMSSYAGDNIITAQAMYKGLWMDCVTQSTGMMSCKMYDSVLALSAALQATRALMVVSLVLGFLAMFVATMGMKCTRCGGDDKVKKARIAMGGGIIFIVAGLAALVACSWYGHQIVTDAYNPLIPTNIKYEFGPAIFIGWAGSALVILGGALLSCSCPGNESKAGYRVPRSYPKSNSSKEYV [chain 1 F148A]: the screen value reads like this: (0 mM NaCl) 0.38 a.u; (300 mM NaCl) 0.87 a.u.
The corresponding values for MANSGLQLLGFSMALLGWVGLVACTAIPQWQMSSYAGDNIITAQAMYKGLWMDCVTQSTGMMSCKMYDSALALSAALQATAALMVVSLVLGFLAMFVATMGMKCTRCGGDDKVKKARIAMGGGIIFIVAGLAALVACSWYGHQIVTDAANPLIPTNIKYAAGPAIFIGWAGSALVILGGALLSCSCPGNESKAGYRVPRSYPKSNSSKEYV [chain 1 V70A R81A F148A Y149A E160A F161A] are 0.87 a.u and 0.86 a.u.
Turning to MANSGLQLLGFSMALLGWVGLVACTAIPQWQMSSYAGDNIITAQAMYKGLWMDCVTQSTGMMSCKMYDSVLALSAALQATAALMVVSLVLGFLAMFVATMGMKCTRCGGDDKVKKARIAMGGGIIFIVAGLAALVACSWYGHQIVTDFANPLIPTNIKYEFGPAIFIGWAGSALVILGGALLSCSCPGNESKAGYRVPRSYPKSNSSKEYV [chain 1 R81A Y149A], the screen value by setting is: (0 mM NaCl) 0.7 a.u; (300 mM NaCl) 0.82 a.u.
Turning to MANSGLQLLGFSMALLGWVGLVACTAIPQWQMSSYAGDNIITAQAMYKGLWMDCVTQSTGMMSCKMYDSVLALSAALQATRALMVVSLVLGFLAMFVATMGMKCTRCGGDDKVKKARIAMGGGIIFIVAGLAALVACSWYGHQIVTDFYNPLIPTNIKYAFGPAIFIGWAGSALVILGGALLSCSCPGNESKAGYRVPRSYPKSNSSKEYV [chain 1 E160A], the screen value came out at 0.38 a.u (0 mM NaCl) and 0.87 a.u (300 mM NaCl).
